Assay results as given in patent US20260152527A1 (SIGHTSTREAM BIOTHERAPEUTICS, published 2026).
Starred links: 1 amine or outer side, 2 acyl side, 3 side chain; linkers in the order of their positions; H or OH if unused. Positions of bridges follow the written chain, without caps; N, C: chain ends. Non-standard residues stand in square brackets, D forms with d. *: point of attachment. dPhe(4-CF3) = N[C@H](Cc1ccc(C(F)(F)F)cc1)C(=O)O; Benzoyl(3,5-(OH)2) = O=C(c1cc(O)cc(O)c1)*; dLys(N3) = [N-]=[N+]=NCCCC[C@@H](N)C(=O)O; NMeW = CN[C@@H](Cc1c[nH]c2ccccc12)C(=O)O; Lys(N3) = [N-]=[N+]=NCCCC[C@H](N)C(=O)O; Phe(4-NH2) = Nc1ccc(C[C@H](N)C(=O)O)cc1; mXylylene = c1cc(C[*:1])cc(C[*:2])c1; NMeH = CN[C@@H](Cc1c[nH]cn1)C(=O)O; NMeR = CN[C@@H](CCCNC(=N)N)C(=O)O; NMeF = CN[C@@H](Cc1ccccc1)C(=O)O; dNMeF = CN[C@H](Cc1ccccc1)C(=O)O; hArg = N=C(N)NCCCC[C@H](N)C(=O)O; R5 = C=CCCC[C@@](C)(N)C(=O)O; S5 = C=CCCC[C@](C)(N)C(=O)O; Nle = CCCC[C@H](N)C(=O)O; Pra = C#CC[C@H](N)C(=O)O

Tests used:
Assay in all cases: cell-based or functional assay
[1] = target: human recombinant MC1R (CHO-K1 stable cell line, GenScript) (human, UniProt Q01726 1-317)
Chain of human recombinant MC1R (CHO-K1 stable cell line, GenScript) (Q01726 whole entry): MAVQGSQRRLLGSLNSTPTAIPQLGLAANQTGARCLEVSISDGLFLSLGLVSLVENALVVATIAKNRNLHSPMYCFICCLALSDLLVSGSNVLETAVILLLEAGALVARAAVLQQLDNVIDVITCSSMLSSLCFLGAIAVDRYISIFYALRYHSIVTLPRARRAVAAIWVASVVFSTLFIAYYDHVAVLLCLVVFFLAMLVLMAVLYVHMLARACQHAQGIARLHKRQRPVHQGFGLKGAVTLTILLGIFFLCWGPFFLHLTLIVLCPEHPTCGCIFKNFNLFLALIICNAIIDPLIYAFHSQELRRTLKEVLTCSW

[2] = target: human recombinant MC3R (CHO-K1/Gα15 stable cell line, GenScript) (human, UniProt P41968 1-323)
Chain of human recombinant MC3R (CHO-K1/Gα15 stable cell line, GenScript) (P41968 whole entry): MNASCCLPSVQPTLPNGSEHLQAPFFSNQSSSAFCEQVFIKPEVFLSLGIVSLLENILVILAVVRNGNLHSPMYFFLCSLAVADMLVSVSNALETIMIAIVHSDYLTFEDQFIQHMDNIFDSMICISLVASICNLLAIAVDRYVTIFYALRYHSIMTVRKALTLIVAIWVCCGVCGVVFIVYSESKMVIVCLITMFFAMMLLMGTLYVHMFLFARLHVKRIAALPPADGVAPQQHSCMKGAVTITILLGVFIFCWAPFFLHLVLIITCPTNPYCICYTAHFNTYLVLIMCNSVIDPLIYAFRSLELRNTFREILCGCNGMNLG

[3] = target: human recombinant MC4R (CHO-K1/Gα15 stable cell line, GenScript) (human, UniProt P32245 1-332)
Chain of human recombinant MC4R (CHO-K1/Gα15 stable cell line, GenScript) (P32245 whole entry): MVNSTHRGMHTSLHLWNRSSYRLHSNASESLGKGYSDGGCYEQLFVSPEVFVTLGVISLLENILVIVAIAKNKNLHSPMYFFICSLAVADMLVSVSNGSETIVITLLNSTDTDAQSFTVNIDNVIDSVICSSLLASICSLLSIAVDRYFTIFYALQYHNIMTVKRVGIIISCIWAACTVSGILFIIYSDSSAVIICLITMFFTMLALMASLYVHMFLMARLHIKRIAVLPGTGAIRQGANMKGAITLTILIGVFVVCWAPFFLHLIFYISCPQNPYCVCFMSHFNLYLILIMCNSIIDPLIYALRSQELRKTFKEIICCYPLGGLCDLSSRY

[4] = target: human recombinant MC5R (CHO-K1/Ga15 stable cell line, GenScript) (human, UniProt P33032 1-325)
Chain of human recombinant MC5R (CHO-K1/Ga15 stable cell line, GenScript) (P33032 whole entry): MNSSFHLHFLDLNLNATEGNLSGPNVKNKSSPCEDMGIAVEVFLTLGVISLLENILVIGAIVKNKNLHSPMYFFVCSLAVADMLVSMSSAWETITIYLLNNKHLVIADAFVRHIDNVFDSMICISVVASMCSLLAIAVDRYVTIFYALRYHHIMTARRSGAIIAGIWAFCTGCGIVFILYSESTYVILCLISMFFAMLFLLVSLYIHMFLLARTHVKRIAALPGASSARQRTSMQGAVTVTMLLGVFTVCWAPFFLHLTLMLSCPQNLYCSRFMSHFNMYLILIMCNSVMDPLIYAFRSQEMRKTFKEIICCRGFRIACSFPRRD

| MC1R IC50 [1] [nM] | MC3R IC50 [2] [nM] | MC4R IC50 [3] [nM] | MC5R IC50 [4] [nM] | Binder |
| --- | --- | --- | --- | --- |
| 0.36 | 276 | 59.6 | 404 | Ac-[Nle]EHFRWGK-NH2 (SMILES CCCC[C@H](NC(C)=O)C(=O)N[C@@H](CCC(=O)O)C(=O)N[C@@H](Cc1c[nH]cn1)C(=O)N[C@@H](Cc1ccccc1)C(=O)N[C@@H](CCCNC(=N)N)C(=O)N[C@@H](Cc1c[nH]c2ccccc12)C(=O)NCC(=O)N[C@@H](CCCCN)C(N)=O) [KR-035] |
| 0.061 | 199 | 87.6 | 84.4 | Ac-YSMEHFRWGKPV-NH2 [KR-001] |
| 1.15 | 937 | 34.2 | > 10000 | Ac-EHFRWGKPV-NH2 [KR-004] |
| – | 445 | – | 225 | Ac-SYSME[NMeH]FRWGKPV-NH2 [KR-021] |
| 128 | > 50000 | 104 | – | {CH2CO}-EHFRWC-NH2 (thioether N-6; SMILES N=C(N)NCCC[C@@H]1NC(=O)[C@H](Cc2ccccc2)NC(=O)[C@H](Cc2c[nH]cn2)NC(=O)[C@H](CCC(=O)O)NC(=O)CSC[C@@H](C(N)=O)NC(=O)[C@H](Cc2c[nH]c3ccccc23)NC1=O) [KR-011] |
| 0.081 | 4480 | 242 | 234 | Ac-[Nle][Lys(N3)]H[dF][NMeR][NMeW][Pra]-NH2 (triazole 2-7) [KR-050] |
| 0.28 | 98.8 | 39.3 | 94.8 | Ac-[Nle][Lys(N3)]H[dF]R[NMeW][Pra]-NH2 (triazole 2-7) [KR-046] |
| 16.5 | – | 30.9 | 161 | Ac-[Nle][dLys(N3)]H[dF]RW[Pra]K-NH2 (triazole 2-7; not fully specified; printed as Ac-Nle-[DLys(N3)-His-DPhe-Arg-Trp-Pra]-Lys-NH2) [KR-069] |
| 0.48 | > 50000 | 40.3 | 191 | Ac-[Nle][Lys(N3)]H[dF][NMeR]W[Pra]-NH2 (triazole 2-7) [KR-045] |
| 0.043 | 77.5 | 96.2 | 98.9 | Ac-[Nle][Lys(N3)][NMeH][dF]R[NMeW][Pra]-NH2 (triazole 2-7) [KR-051] |
| > 50 | > 50000 | 238 | 2300 | Ac-[Nle][Lys(N3)]H[dNMeF]RW[Pra]-NH2 (triazole 2-7) [KR-044] |
| 0.04 | 24.1 | 13.8 | 44.3 | XXHFRWX (Ac-Nle-[Dab-His-DPhe-Arg-Trp-Dab] Linker: succinic acid-NH2) [KR-041] |
| 17.8 | > 50000 | – | 1080 | Ac-SYSMEH[dNMeF]RWGKPV-NH2 [KR-025] |
| 2.68 | > 50000 | 122 | 195 | Ac-[Nle][Lys(N3)][NMeH][dF][NMeR]W[Pra]-NH2 (triazole 2-7; not fully specified) [KR-052] |
| 21.2 | 13400 | – | 4540 | Ac-SYSMEHF[NMeR]WGKPV-NH2 [KR-023] |
| 0.15 | 61.6 | 31.4 | 86 | Ac-[Nle][Lys(N3)][NMeH][dF]RW[Pra]-NH2 (triazole 2-7) [KR-043] |
| 0.093 | 67.8 | 31.9 | 82.3 | Ac-[Nle][Lys(N3)]H[dF][hArg]W[Pra]K-NH2 (triazole 2-7; not fully specified; printed as Ac-Nle-[Lys(N3)-His-DPhe-HArg-Trp-Pra]-Lys-NH2) [KR-054] |

| MC1R IC50 [1] [nM] | MC3R IC50 [2] [nM] | MC4R IC50 [3] [nM] | MC5R IC50 [4] [nM] | Binder |
| --- | --- | --- | --- | --- |
| 0.124 | – | – | 257 | Ac-[Nle]CH[dF]RWC-NH2 (linker 2-7 via mXylylene) [KR-040] |
| 0.052 | 66.5 | 23.1 | 69.6 | Ac-[Nle][Lys(N3)]H[dF]RW[Pra]N-NH2 (triazole 2-7; not fully specified; printed as Ac-Nle-[Lys(N3)-His-DPhe-Arg-Trp-Pra]-Asn-NH2) [KR-056] |
| 0.88 | 328 | 40.6 | 289 | Ac-[Nle]EHFRWGKC-NH2 (not fully specified (bridges); printed as -Cyclo(-Ac-Nle-Glu-His-Phe-Arg-Trp-Gly-Lys-Cys)-NH2; also: cyclo(...) including Ac, ring type and places not given here) [KR-036] |
| > 50 | 80.9 | 17.9 | 41.9 | Ac-[Nle][Lys(N3)][Phe(4-NH2)][dF]RW[Pra]-NH2 (triazole 2-7) [KR-047] |
| 0.13 | 289 | 40.5 | 315 | Ac-MEHFRWGKPV-NH2 [KR-003] |
| > 50 | 20000 | 74 | 5090 | Ac-[Nle][R5]H[dF]RW[S5]-NH2 (staple 2-7; SMILES CCCC[C@H](NC(C)=O)C(=O)N[C@]1(C)CCCC=CCCC[C@@](C)(C(N)=O)NC(=O)[C@H](Cc2c[nH]c3ccccc23)NC(=O)[C@H](CCCNC(=N)N)NC(=O)[C@@H](Cc2ccccc2)NC(=O)[C@H](Cc2c[nH]cn2)NC1=O) [KR-038] |
| > 200 | > 50000 | – | 698 | Ac-SYSMEH[NMeF]RWGKPV-NH2 [KR-022] |
| 0.024 | 62.9 | 35 | 106 | Ac-[Nle][Lys(N3)]H[dF]RW[Pra]K-NH2 (triazole 2-7) [KR-037] |
| 0.0089 | 78.1 | 39.8 | 120 | {Benzoyl(3,5-(OH)2)}-[Nle][Lys(N3)]H[dF]RW[Pra]K-NH2 (triazole 2-7; not fully specified; printed as HyBA-Nle-[Lys(N3)-His-DPhe-Arg-Trp-Pra]-Lys-NH2) [KR-053] |
| 0.18 | > 50000 | 183 | 48.8 | Ac-[Nle][Lys(N3)]H[dPhe(4-CF3)]RW[Pra]-NH2 (triazole 2-7) [KR-048] |
| 0.88 | 515 | – | – | Ac-SYSMEHFR[NMeW]GKPV-NH2 [KR-024] |
| 20 | 5570 | 16 | – | Ac-EHFRWGC-NH2 (bridge N-7; not fully specified (bridges); printed as Cyclo(-Ac-Glu-His-Phe-Arg-Trp-Gly-Cys)-NH2) [KR-012] |
| 1.95 | 426 | 35.4 | 739 | Ac-[Nle][S5]H[dF]RW[S5]-NH2 (staple 2-7) [KR-039] |
| – | 1330 | 194 | 489 | Ac-[Nle]CH[dF]RCW-NH2 (linker 2-6 via mXylylene) [KR-032] |
| 0.093 | 149 | 67 | 79.8 | Ac-SYSMEHFRWGKP-NH2 [KR-005] |
| 0.16 | 225 | 109 | 237 | XXHFRWX (Ac-Nle-[Dab(N3)-His-DPhe-Arg-Trp-Dab(N3)] linkr: 3,3′-Oxybis[1-propyne]-NH2) [KR-042] |
